This passage reports Kd results from publication PMC2714593, “Insights into the role of Val45 and Gln182 of Escherichia coli MutY in DNA substrate binding and specificity”.

One data set has as its target T1, EcMutY V45A (Escherichia coli, UniProt P17802 1-350, V45A).
T1 sequence: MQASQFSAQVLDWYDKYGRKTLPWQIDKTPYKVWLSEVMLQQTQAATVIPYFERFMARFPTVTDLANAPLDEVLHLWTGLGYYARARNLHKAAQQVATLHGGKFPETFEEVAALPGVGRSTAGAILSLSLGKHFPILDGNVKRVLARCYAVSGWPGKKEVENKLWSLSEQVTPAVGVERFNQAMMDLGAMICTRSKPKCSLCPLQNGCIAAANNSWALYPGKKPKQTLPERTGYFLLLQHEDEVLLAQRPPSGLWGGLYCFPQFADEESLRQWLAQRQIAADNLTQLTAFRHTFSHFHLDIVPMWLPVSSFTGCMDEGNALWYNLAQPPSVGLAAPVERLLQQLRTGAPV
Put plainly: EMSA; 20 mM Tris-HCl pH 7.6, 80 mM NaCl, 1 mM DTT, 1 mM EDTA, 2.9% glycerol, 20 ng poly dI/dC per 20 ul, 0.09 nM labeled DNA, 30 min at 30 C; 4% PAGE in TBE. As to conditions: protein: recombinant; label: 5'-32P on X strand; blunt; T/G mismatch at strand 1 position 22.

The target of the next data set is T2, EcMutY Q182L (Escherichia coli, UniProt P17802 1-350, Q182L).
T2 sequence: T1 sequence with A45V, Q182L
Described as above. As to conditions: protein: recombinant; label: 5'-32P on X strand; blunt; T/G mismatch at strand 1 position 22.

Substitutions are numbered along the chain they refer to.

B1: T/G 44-mer (dsDNA)
DNA 1: AATTGGGCTCCTCGAGGAATTTGCCTTCTGCAGGCATGCCCCGG
DNA 2: CCGGGGCATGCCTGCAGAAGGCGAATTCCTCGAGGAGCCCAATT
As for B1, the dissociation constant (Kd) in the data set with EcMutY V45A was 0.011 ± 0.004 nM; in the data set with EcMutY Q182L, 0.043 ± 0.014 nM.
